The record followed here is the NTF2 design screens of Basanta et al. (2020).

The series in a line: protease stability score; higher = more stable; yeast display proteolysis, trypsin and chymotrypsin.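 Also: log10 excess protease needed over predicted unfolded state with 0 meaning unfolded.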

“DEHAFKRIDEMLTAFQKNDPNKIQEYMDENVKVQYGDKSVHGRDEIAKSKQETREHLRLEIRIENYDVNGDTIHVHAKVIFNVNGDPLKFEVDIVARLHNGKIKSMQLQFSHEQQKKVES” gave a protease stability score of 0.682. Consider “DEHAHRQFKHYLDALKENNEEDLKKQMDKDAEAKYGNQELHGRDDAARHLKRELEEIRVDITEYRIRNQGNNIEAHVRFVVKHNGQPSKMTVLITASADENHMRTIEFDEKK”, for which the protease stability score was determined as 0.248. Sequence “DEHAIKLLKKIYEAWEEGDPDEARENADPNARYIIGDKTLHGMENIVKEWQRRYDESRIDYKHIDVQDDNGRANADVRYVVQHNGRPERKTMTVIVEVHNGRVTQIHFQDTQ” returned a protease stability score of -0.01. As to “DEHAKDVFDTLREARKRGDEDTMKRQVDPNAKAQVGDKTYHGSDEIARRLTEENRESRVEYHTMSVEIQGDHVVVRFRARYEHNGQPSHFHAVEVVKADNGQIVFLVLQETK”, the protease stability score is 0.06.

“DEHAKELAKEFMEAWTKGDPDKAATLADPNVRANVGEFNVHGREDAHRAVDRFRRQMHVELDIRSMRVQGNKVQVDVSVTVTHNGRPHSNRYVVLIIFHNGRIRSVHRRREG”: the protease stability score turned out to be 0.176.

“DEHAKHVVETYMTAQKHNNPKDAQKMVDPNARFSVGDKEVQGSEQLDKEIQRDNKEIREHVESMSVDVDGDKAHVDRTVKFQRNGKPHKLKVHLNFRLTNGRIKTVQVDEDG” gave a protease stability score of -0.308. Take “DEHAKKLAERILEAISNNNEEDIQKNIDPNAKIQVGDRQVHGREDLQKQYQDFRHHARIQNRLRSVRADGDHVTLEIEVVFKVNGNPVNNTVNMSMVIENGRVKMREVQVPEEVQDTIDQ”: the protease stability score is 0.075. “DEHAKKRLEEWLRNRQQGDDERLVQMADPNVRIEYGDKSFKGRDDVREWAQKESKSMDLQLKSVDLKVSGDKVDAKITFTQDENGKPDHATMNLVMKQDNGHIKVLRYEVTK” yielded a protease stability score of 0.084.

For “DEHAKRVLHEWLRAIQTGDPDKAMRLADKDARIRVGDKVISGREQLHKWVETLKKHIKVQIEDFNIEVHGEELELNIVATLNDNGEPQRSRWVVTVIIRNGEMKSLTQRDDS”, the protease stability score worked out at 0.009. “DEHAKRVVEKAWKALDTGDPKTMEDMLDPNARQRYGDTSVHGRENIIHKLEKDSKEIRFKIKIDNITVHGDKIDVRMLVTERRDGQPRQTHRVATFRIHNGRLEEADFQKDG” yielded a protease stability score of -0.073.

The sequence “DEHAMERIDDFFQALRNGDPKNLKEQIDPNVSLHYGDKEVTGKDRAAKEMAQIFRHIRLEFDIKSVSAHNGRVTVNAEVVDEENGRPHSRRVQNNAVWHNGVIQSFHVKETK” came in with a protease stability score of -0.402. The figure for “DEHANETVKRILRDIRHNNPHEIRKNMDPNAKVVIGDKTIHGREEAARQLKREMHEIRVEVKHIDMKVHDGRVNVNFDVVLDSNGNPQRQSYRMVVRVHNGTVHYLSKSDTR” is -0.041; for “DEHAQKLLEKEKDALERNNPDHFRDMVDKDARLRVGNKVIHGREQVSEDVERKRDEMRYRFEIKHVQVHNGQIDADVVQVVNVNGHPVRNKYRITVNVTNGRAKQVTVRIDEDTLRKMDR” it is -0.027; for “DEHAQKRASQLVDKQNTGNPESIANYMDPNAKVQVGENRVHGREEIETLVKQKNKEARYEYNVESMSIQGDKLTMHLHAVVEINGQPLEFKVRVDFTFHNGRIRDVYYQLPEELLEELKR” it is 0.165.

Regarding “DEHARDRATQMIEAIHNGDPDTLQELLDEDAHIQIGDKEIHGHDQASRELRRRREEQNVDVRVRDLKVTGERVKIDVEIRVSHNGQPTETKVTIDVEAHNGKIKDLRMRTSQ”, the protease stability score amounted to 0.15. In turn, “DEHARHLVSELLRALESGDPDQLVKMADPNVEAQIGDKRYTGRSHMKKMQEDLKREMRYHVTDFHVEVNGNTAVADVDASVEHNGQPRRHRYRIVITFENGRAKDFSIQRDK” gave a protease stability score of 1.12. On to “DEHARKQFEDLIRALSTGDPERVAQLVDPNAHFQVGDQTIHGREHLMEDVKRRRDKMRMELHVDHVKVDENHLDAIIRVVQDTNGDPDHKKYRLVAQWQNGRVNNQEMQETS”, for which the protease stability score came out at 0.541. For “DEHARRLVKKFIEAMKHGDPDKLMKLADPNVKFDIGDHQFKGSHEANKWLERMVRHMRFSLKVDSVKAHNGRVEVDAVFTFEVNGKPDQQRFTLDFHFNNGRVQNLTWDVDPRDWRKQLK”, the protease stability score is 0.73. As to “DEHARSVMRQFVHALNTGDPDEASRQVDKNVKATYGDKSVHGRESVKEWLEKLVKRMRVEVDLKTVHAQGDTVTAKAHLTAEVNGRPFKVDVHIEATVQNGKIKELVVDFDEHFTEQVES”, the protease stability score was 2.56.

Sequence “DEHAVEVAKKIVEAWKDGDPKRFNELFDPNAQLRVGDHHFHGSHEADRHMQTINKEQRVRYKNVRVESRPGRVEVRVDMEKTHDGRPRRSEFTVQINVHDGQVKKLTVQEDG” returned a protease stability score of 0.239. Consider “DEHAVRRLQEFARVLERGDESKAEQYLDPEVRITVGDREINGMKTFNNFLQEVSRQMRFSLQHVEARARNGKARIIMHFQVDHNGNPEQQRIDITASLHNGRMKRMHMRTDR”, for which the protease stability score came out at 0.031. As for “DEHDAAKRAEEAVRRANSGDEKDALRLIDPNATVQVGDKNYHGREQVRRVVEELTERFDHIQFKHVSLQGNRVTARADATHNGRTEKMIFIVRAHNGRVKSWKIESS”, the figure is -0.093; as for “DEHDAESIQSVLTNGNFESMDELADKDVHVDVGNKRYHGQEQFRTLQTHYKNRVDHVDMHRLTQDGEKINADMRAVVNGKDFQFELVIKVHNGRIRRLQLNFTSDSQDKEHEERLR”, 0.496; as for “DEHDEARKFADKFVKALRDGDETLVNKLVDPNAKFVIGDKDYHGRKAASTLMHEWKNRVDEQEVKIKRISVRNGRANVDVEMVMNVDGHRVHFRVIIYAERRDGRLRVVRIEAR”, 1.52.

Regarding “DEHDEKIVQTFLTALRTGDEEELQKNMDPNVSVHIGDQEVNGREEIARQLKKEQDEMRVDIRRYHISAHNGRVEVRIKFTAEVNGKPNRFTVVYDFVLHNGHIEKMHVKMSREDKKKKKQ”, the protease stability score was -0.189. On to “DEHDITKIMEEIAKVIRNNDEKRLVEMADPNVRVIVGDKEFQGRDEMEKFNHEYSRQADKVQVVSVNVNGNRITIEVTANINGRDLQFVVVFEIKNGTIENVHVNFTNPEVLRQAES”, for which the protease stability score amounted to 1.19.

In the case of “DEHDLDKWRQVMEHNDFDKLVRLADPNVKIVVGDQEYHGREQYKELMDKLEHHVDHMELHSVSITNGEVHARLTVIINGKSIEYVFKFVVDNGKLKKLRIQFTDPEDEKIWKRAMS”, the protease stability score is 1.7.

“DEHDMAHKFFHDLVEAAKTGDRDKIKRLADPNVKIEYGDKRLHGHKDYANFIQKIVERVDSVNFQLQSVSVTGDKVRMIYTLDVVENGQKRTDRLQIEAQIHNGDIIAKRVVEG” yielded a protease stability score of 0.873. As for “DEHDTEVAERALNDLKTGDPDKVTEMADKHVKYVVGEKRIQGRETYAKTVEKERDEIRVDWSVHNIQVHNGKLDVSAEFRFTVNGQPNSDSARWEFTLRNGKIQEVVMKVSDRFLKQMRS”, the protease stability score is -0.15. Consider “DEHDVRELLKALTTGNEDDMRKMLDKDVTANIGNFRVKGREQQLTLIRRMLERADHLSVTSFSSHNGNVEVDVQVTVDGRRIRYVIRAQAHNGKVNSVRMDVTDHSVEQTLRHLHS”, for which the protease stability score was determined as 1.36.

Regarding “DEHEAEKLLKLLTENDPRQFQNEADKNVRVFYGDKEVHGREQFHTWVQRVRERVDTLEIKRVETRPGRLEVKFRVNVNGQTLEMVLVIVVHNGKIQDVKLHARDHDVMKRWKEAVS”, the protease stability score is 0.82. “DEHEAKKMSEMFKNLATGNPDTAKRQFDKDASVQIGDKVVHGREHLSRTLKRRRDQIRVVVEDVKVTVNGDKAEIQVIFSWEHNGEPRRSVYFATVHWHNGNVKKVTVTEQS”: the protease stability score is -0.121. As to “DEHEEAKKVADRMIEVEKTGDEDSLTENFDPNVRFKIGDRTYHGEKDMQQLLREIKERADHIDIDVKHVTAHNGRADIDRVRVIQVDGQRRKQRIRMDLTFHNGRLHLKQMKVD”, the protease stability score was 0.31. The sequence “DEHEKMKKHMTEWRSAFKRGDPDTVRKLADKDVDVEVGDKVLHGREQVANHVVDLARTVDHVDIRIETMEVNGDHFVLVMSAVFDVNGKRDERKFVLVAKLHNGTIKVKNMKRS” yielded a protease stability score of 0.07. As to “DEHEKQKKAKDAADLIRHNNPERVAELFDEDARVRVGDHTYHGREHIVRVLQTLVDQIDHMQLTDLDVHGETLRLHIVMQINGKKVDMQLDIELKNGKMKRMRFDPDRVRDVQK”, the protease stability score worked out at 0.466. As for “DEHELNKFEQLLRDRETGDEEHLKRLMDKDARVNVGDKNVHGREEAANQQVERVKRMDVRILHMDLKDNNGKINADITRIIHTNGHPDKHQFVLTVDVKNGRVQNIRQDDTS”, the protease stability score is -0.284.

The sequence “DEHELREILDKANEAWKRNDPDEMVKQADKDVEVKIGDKDFHGREEAHEAMKELHDRADHISIRDYDASGNKARIHMYIVVNGRRVDFVVIIVVRNGRIQKIELNVRDEKAKSNLKQ” had a protease stability score of 1.09.

In the case of “DEHELRRQADDFWHAVRTGDEKRIVELLDPNAHAVVGDKRYHGEKQIRQLVRSMREQVDTFRVSSITVSGDDIEIDIVLNVNGREFRATIVLRQHNGKVTELKLHPNINRALES”, the protease stability score was 1.28.

The sequence “DEHEMKKVADQIVDILRTGDQDRFRDLADPNVRVSVGDKTVHGRHQAQQQVKRLKDQVDHVQLKDMKIHGNTVVVKAHVEINGNTTDRDVKFELHNGRVSHLTIDPEAQKVMDT” displayed a protease stability score of 0.273. As for “DEHFETVARLMLHALEDNNPEVLRENLDPNARVQVGDQDLTGRDTVVKVAHRLLTEIRIHIQIDSVRNQGDTVEFDAKFRANVNGRPYSVKVVIVYVVRNGRAVHIQVRMDPDFLRKLRK”, the figure is 0.938.

“DEHHAAKRLMDNLLQAMRTGDTDTLKKLADPNVRIDVGDKTYHGREQFLQWMKELVKHVDSVHVDIKRFTVDGNNATIDAEARRDVNGNDHSEKVSVVAEVSGDKMHLKEIQYR” gave a protease stability score of 1.04.

“DEHHEARKMIKHYFELLNQGNFEEAAKLFDEDAKVHVGDRTVNGREQIHDWFTRMRKQIDEFTVRLTKVEVSNGHVRVDFYYTKNHNGKSKSNSVDMIFQNNNGRIRAKSMQEK” came in with a protease stability score of -0.085. In turn, “DEHHRKEFEDMLRVEQHGNEEQLKRYMDPNARFRYGDKKVHGREEVVRQISKRRHKLRMQYDTWDIKVKGDKITADLKYVEHQNGQPEDVRVNVSIRFHNGKLVEAHRERDK” registered a protease stability score of -0.001.

In the case of “DEHHTQEARKFLENQQTGNETELQKYADPNASAQIGDKRVHGMEKFAHTIRKEVDELRMTIHDVRFDANGEKVIVHVDVQYDHNGRPERATMVVLFKHNNGKATEITARYDK”, the protease stability score came to 0.411. As for “DEHIAKDLHRLAETGNWQELVEQADKDAKAKVGDKTYHGREDLQTLNRQWNEHVDHENLERVTLNPDHLVILFKMQVNGKDFAANVRIRRHNGRVEHIQVDARDDEQKKILHELLS”, the figure is 0.657; as for “DEHIDHMYKEILRLLETGNSEEAQKLLDPNVKVVVGDKRYHGREDYARDMVRRIKEMDVQRDFDHVSVHNGKVDADAKQTTNSNGRPSSNTVRITIVQHNGRIHMIKIDSRQ”, 0.041. As to “DEHIEEVATKHLKAQHTNDPKQFRDLADKDVEVEVGDKNIHGREQNANEQKRRRDEWEFEMKIDHISAHDGRAILRVKINYVVNGKPINVDAVIRLHAHNGTIKELSVQVDPDQMREVKS”, the protease stability score worked out at 1.
